Publication doi:10.1101/2020.02.28.970301

What was measured:
[1] = molecular target: MBP-RAMP1.24-111-(GS)5-CLR.29-144-H6 (human) (UniProt O60894); assay: fluorescence polarisation
[2] = molecular target: RAMP3:CLR full-length receptor complex (AM2 receptor) (human) (UniProt O60896)
[3] = molecular target: RAMP2:CLR full-length receptor complex (AM1 receptor) (human) (UniProt O60895)
[4] = molecular target: RAMP1:CLR full-length receptor complex (CGRP receptor) (human) (UniProt O60894)
[5] = molecular target: MBP-RAMP2.55-140[L106R]-(GS)5-CLR.29-144-H6 (human) (UniProt O60895); assay: fluorescence polarisation
[6] = molecular target: MBP-RAMP3.25-111-(GS)5-CLR.29-144-H6 (human) (UniProt O60896); assay: fluorescence polarisation
[7] = molecular target: T1, MBP-RAMP1.24-111-(GS)5-CLR.29-144-H6 (human), O60894; assay: fluorescence polarisation
T1 chain: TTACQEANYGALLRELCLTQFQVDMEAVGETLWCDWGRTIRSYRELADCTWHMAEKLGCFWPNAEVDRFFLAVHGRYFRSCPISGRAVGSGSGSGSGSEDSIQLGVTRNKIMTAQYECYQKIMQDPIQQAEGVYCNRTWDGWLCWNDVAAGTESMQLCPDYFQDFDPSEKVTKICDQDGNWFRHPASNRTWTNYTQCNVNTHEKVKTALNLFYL

Sequence of RAMP2:CLR full-length receptor complex (AM1 receptor) (human) (O60895 43-175, chain 1 of 2): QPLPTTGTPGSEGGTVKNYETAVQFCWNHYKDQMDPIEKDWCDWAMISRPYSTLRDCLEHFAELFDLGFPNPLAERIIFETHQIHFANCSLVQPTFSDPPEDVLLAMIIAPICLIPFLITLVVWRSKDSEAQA
Sequence of RAMP2:CLR full-length receptor complex (AM1 receptor) (human) (Q16602 23-461, chain 2 of 2, further chain): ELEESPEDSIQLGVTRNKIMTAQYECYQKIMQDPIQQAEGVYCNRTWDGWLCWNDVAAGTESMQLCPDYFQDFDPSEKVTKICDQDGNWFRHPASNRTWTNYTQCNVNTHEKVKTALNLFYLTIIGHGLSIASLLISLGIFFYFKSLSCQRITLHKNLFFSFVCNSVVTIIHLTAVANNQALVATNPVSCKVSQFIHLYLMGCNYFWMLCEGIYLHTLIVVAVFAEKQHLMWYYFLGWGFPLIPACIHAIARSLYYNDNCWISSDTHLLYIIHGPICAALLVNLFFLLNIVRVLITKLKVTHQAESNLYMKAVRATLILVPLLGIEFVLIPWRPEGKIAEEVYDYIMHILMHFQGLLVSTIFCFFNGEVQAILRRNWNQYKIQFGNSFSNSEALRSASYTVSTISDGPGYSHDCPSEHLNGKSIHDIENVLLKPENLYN
Sequence of RAMP3:CLR full-length receptor complex (AM2 receptor) (human) (O60896 24-148, chain 1 of 2): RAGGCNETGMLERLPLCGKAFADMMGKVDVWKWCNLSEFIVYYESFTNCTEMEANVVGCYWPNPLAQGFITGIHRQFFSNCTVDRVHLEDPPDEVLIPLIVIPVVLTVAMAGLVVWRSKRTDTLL
Sequence of RAMP3:CLR full-length receptor complex (AM2 receptor) (human) (Q16602 23-461, chain 2 of 2, further chain): as the sequence (Q16602 23-461, chain 2 of 2, further chain) above
Sequence of RAMP1:CLR full-length receptor complex (CGRP receptor) (human) (O60894 27-148, chain 1 of 2): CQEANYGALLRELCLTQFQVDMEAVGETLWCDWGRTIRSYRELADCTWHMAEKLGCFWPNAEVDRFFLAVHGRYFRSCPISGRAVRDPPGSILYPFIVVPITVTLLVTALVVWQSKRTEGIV
Sequence of RAMP1:CLR full-length receptor complex (CGRP receptor) (human) (Q16602 23-461, chain 2 of 2, further chain): as the sequence (Q16602 23-461, chain 2 of 2, further chain) above

With AM2/IMD S43G/H45W (peptide) as the molecule, how does the pKI [1] read?
Its pKI is 4.75.

How did the cAMP antagonism in COS-7 cells; estimated receptor residence time [2] turn out when “CGRP(8-37) N31D/S34P/K35W/A36S (peptide)” was run?
Its cAMP antagonism in COS-7 cells; estimated receptor residence time is 11 h.

And the cAMP antagonism in COS-7 cells; estimated receptor residence time [3]?
The cAMP antagonism in COS-7 cells; estimated receptor residence time was 5.2 h.

And the cAMP antagonism in COS-7 cells; estimated receptor residence time [4]?
Its cAMP antagonism in COS-7 cells; estimated receptor residence time is 12.5 h.

For AM S48G (peptide), which fold increase in affinity against wild-type AM [5] is on record?
Its fold increase in affinity against wild-type AM is 5 fold.

How did the antagonism of cAMP signalling in COS-7 cells, apparent KB (Gaddum/Schild) [3] turn out when AM(22-52) S48G/Q50W (peptide) was run?
Its antagonism of cAMP signalling in COS-7 cells, apparent KB (Gaddum/Schild) is 80 pM.

What does the source list for AM(37-52) S48G/Q50W (peptide)?
fold increase in affinity against Q50W [1]: 6 fold; fold increase in affinity against Q50W [5]: 13 fold; fold increase in affinity against Q50W [6]: 6 fold

For AM(37-52) S45R/K46A/S48G/Q50W (peptide), which fold decrease in affinity against S45R/K46L/S48G/Q50W [1] is on record?
Its fold decrease in affinity against S45R/K46L/S48G/Q50W is 10 fold.

What about the fold decrease in affinity against S45R/K46L/S48G/Q50W [5] of the same molecule?
The fold decrease in affinity against S45R/K46L/S48G/Q50W was 10 fold.

What about the fold decrease in affinity against S45R/K46L/S48G/Q50W [6] of the same molecule?
Its fold decrease in affinity against S45R/K46L/S48G/Q50W is 10 fold.

Which fold increase in affinity against K46L/Q50W [1] does the source give for AM(37-52) S45R/K46L/Q50W (peptide) here?
Its fold increase in affinity against K46L/Q50W is 5 fold.

And the fold increase in affinity against K46L/Q50W [5]?
The fold increase in affinity against K46L/Q50W was 17 fold.

And the fold increase in affinity against K46L/Q50W [6]?
Its fold increase in affinity against K46L/Q50W is 5 fold.

With GPAGRQDSAPVDPSSPWSY (modifications not checked) [AM2/IMD H45W] as the molecule, how does the pKI [7] read?
Its pKI is 6.08.
